Reference: patent US20170296617A1 (UNIVERSITY OF HOUSTON SYSTEM, published 2017)
No end group written: not given here. TAT = TAT cell-penetrating sequence fused at N-terminus

Key:
ROCK1 [1] = molecular target: T1, ROCK1 (UniProt Q13464 1-553, limits assumed); test: SPR (BiaCore, proteins immobilized on CM-5 chip)
T1 construct: also called Rho-associated kinase 1; p160ROCK

ROCK2 = molecular target: T2, ROCK2 (UniProt O75116 5-554, limits assumed); test: SPR (BiaCore), protein immobilized on CM-5 chip, peptide as analyte; no ROCK-II sensorgram is drawn
T2 construct: also called ROKa

ROCK1 [2] = molecular target: T1, ROCK1; test: SPR (BiaCore), protein immobilized on CM-5 chip, peptide as analyte; the sheet does not say whether ROCK-I is ROCK1-553 or ROCK1-415

T1 sequence (Q13464 1-553 limits assumed): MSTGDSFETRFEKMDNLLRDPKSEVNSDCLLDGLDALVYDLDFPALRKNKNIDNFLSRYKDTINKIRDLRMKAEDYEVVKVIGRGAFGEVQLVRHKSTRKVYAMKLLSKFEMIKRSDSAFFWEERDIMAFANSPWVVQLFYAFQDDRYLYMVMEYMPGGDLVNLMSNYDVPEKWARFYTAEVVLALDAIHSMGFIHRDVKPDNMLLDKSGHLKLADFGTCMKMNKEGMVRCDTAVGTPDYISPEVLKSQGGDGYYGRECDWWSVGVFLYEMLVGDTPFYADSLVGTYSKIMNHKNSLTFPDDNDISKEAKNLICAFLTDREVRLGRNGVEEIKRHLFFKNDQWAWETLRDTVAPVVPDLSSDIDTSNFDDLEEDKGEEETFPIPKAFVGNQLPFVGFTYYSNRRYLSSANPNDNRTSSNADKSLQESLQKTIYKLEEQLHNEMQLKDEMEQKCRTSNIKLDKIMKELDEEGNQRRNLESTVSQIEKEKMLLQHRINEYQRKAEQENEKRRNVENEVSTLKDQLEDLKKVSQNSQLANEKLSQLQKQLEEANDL
T2 sequence (O75116 5-554 limits assumed): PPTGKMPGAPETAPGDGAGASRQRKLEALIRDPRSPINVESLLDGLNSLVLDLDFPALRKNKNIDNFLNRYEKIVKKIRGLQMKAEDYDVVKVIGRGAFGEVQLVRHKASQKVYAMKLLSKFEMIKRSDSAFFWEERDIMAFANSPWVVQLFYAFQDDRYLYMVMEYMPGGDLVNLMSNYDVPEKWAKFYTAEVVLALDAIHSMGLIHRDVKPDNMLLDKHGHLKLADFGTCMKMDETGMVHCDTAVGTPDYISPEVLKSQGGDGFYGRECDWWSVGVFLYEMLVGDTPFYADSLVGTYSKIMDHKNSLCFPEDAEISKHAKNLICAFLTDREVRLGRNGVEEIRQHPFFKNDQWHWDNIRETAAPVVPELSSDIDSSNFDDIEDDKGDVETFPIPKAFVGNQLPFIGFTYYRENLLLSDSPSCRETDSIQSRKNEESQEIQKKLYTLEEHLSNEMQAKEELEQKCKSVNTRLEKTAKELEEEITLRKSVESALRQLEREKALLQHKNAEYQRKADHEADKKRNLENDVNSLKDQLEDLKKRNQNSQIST

Binder	Kd (ROCK1 [1]) [nM]	Kd (ROCK2) [nM]	Kd (ROCK1 [2]) [nM]
ERTYSPSTAVRS (also called PD2w-5; Pep25-4) [peptide25 (ERTYSPSTAVRS)]	1500		
{TAT}-ERTYSPSTAVRS (Synthetic peptide added to the cell culture medium) [TATpeptide25 (peptide25 with the TAT sequence fused at its N-terminal end)]		5150	1450
